B1: CPEB3 Ribozyme (parent)
chain: GGGGGCCACAGCAGAAGCGUUCACGUCGCGGCCCCUGUCAGAUUCUGGUGAAUCUGCGAAUUCUGCUGU

Variants of: B1
Test: self-cleavage, relative activity (ratio to wild type); higher = more cleavage; co-transcriptional

Point of comparison: GGGGGCCACUGCAGAAGCGUUCACGUCGCGGCCCCUGACAGAUUCUGGUGAAUCUGCGAAUUCUGCUGU [A10U U38A], self-cleavage 0.959. Against it:
- GGGGGCCACUGCAGAAGCGUUCACGCCGCGGCCCCUGUCAGAUUCUGGUGAAUCUGCGAAUUCUGCUGU [A10U U26C] — higher, 0.986
- GGGGGCCACUGCAGAAGCGUUCACGACGCGGCCCCUGUCAGAUUCUGGUGAAUCUGCGAAUUCUGCUGU [A10U U26A] — lower, 0.917
- GGGGGCCACUGCAGAAGCGUUCACGUCGCGGCCCCUGCCAGAUUCUGGUGAAUCUGCGAAUUCUGCUGU [A10U U38C] — higher, 0.99
- GGGGGCCACUGCAGAAGCGUUCACGUCGCGGCCCCUGGCAGAUUCUGGUGAAUCUGCGAAUUCUGCUGU [A10U U38G] — lower, 0.154
- GGGGGCCACUGCAGAAGCGUUCACGUCGCGGCCGCUGUCAGAUUCUGGUGAAUCUGCGAAUUCUGCUGU [A10U C34G] — higher, 1.01
- GGGGGCCACUGCAGAAGCGUUCACGUCGCGGCCACUGUCAGAUUCUGGUGAAUCUGCGAAUUCUGCUGU [A10U C34A] — higher, 0.983
- GGGGGCCACUGCAGAAGCGUUCACGUCGCGCCCCCUGUCAGAUUCUGGUGAAUCUGCGAAUUCUGCUGU [A10U G31C] — lower, 0.262
- GGGGGCCACUGCAGAAGCGUUCACGUCGCGGCCCCAGUCAGAUUCUGGUGAAUCUGCGAAUUCUGCUGU [A10U U36A] — lower, 0.291
- GGGGGCCACUGCAGAAGCGUUCACGUCGCGGCCCCUGUCAGAUUCUGGUGAAUCUGCUAAUUCUGCUGU [A10U G58U] — higher, 0.984
- GGGGGCCACUGCAGAAGCGUUCACGUCGCGGCCCCUGUCAGAUUCUGGUGAAUCUGCCAAUUCUGCUGU [A10U G58C] — higher, 1.02
- GGGGGCCACUGCAGAAGCGAUCACGUCGCGGCCCCUGUCAGAUUCUGGUGAAUCUGCGAAUUCUGCUGU [A10U U20A] — lower, 0.122
- GGGGGCCACUGCAGAAGCGGUCACGUCGCGGCCCCUGUCAGAUUCUGGUGAAUCUGCGAAUUCUGCUGU [A10U U20G] — lower, 0.19
- GGGGGCCACUGCAGAAGCGCUCACGUCGCGGCCCCUGUCAGAUUCUGGUGAAUCUGCGAAUUCUGCUGU [A10U U20C] — lower, 0.232
- GGGGGCCACUGCAGAAGCGUUCACGUCGCGGCCCCUGUCAGAUUCUGGUGAAUCAGCGAAUUCUGCUGU [A10U U55A] — lower, 0.888
- GGGGGCCACUGCAGAAGCGUUCACGUCGCGGCCCCUGUCAGAUUCUGGUGAAUCGGCGAAUUCUGCUGU [A10U U55G] — lower, 0.888
- GGGGGCCACUUCAGAAGCGUUCACGUCGCGGCCCCUGUCAGAUUCUGGUGAAUCUGCGAAUUCUGCUGU [A10U G11U] — lower, 0.908
- GGGGGCCACUGCAGAAGCGUUCACGUCGCGGCCCUUGUCAGAUUCUGGUGAAUCUGCGAAUUCUGCUGU [A10U C35U] — higher, 0.976
- GGGGGCCACUGCAGAAGCGUUCACGUGGCGGCCCCUGUCAGAUUCUGGUGAAUCUGCGAAUUCUGCUGU [A10U C27G] — lower, 0.17
- GGGGGCCACUGCAGAAGCGUUCACGUCGCGGCCCCUGUCAGAUUCUGGUGAAUCUGCGAAUUCCGCUGU [A10U U64C] — lower, 0.778
- GGGGGCCACUGCAGAAGCGUUCACGUCGCGGCCCCUGUCAGAUUCUGGUAAAUCUGCGAAUUCUGCUGU [A10U G50A] — higher, 0.978
- GGGGGCCACUGCAGAAGCGUUCACGUCGCGGCCCCUGUCAGAUUCUGGUCAAUCUGCGAAUUCUGCUGU [A10U G50C] — higher, 1
- GGGGGCCACUGCAAAAGCGUUCACGUCGCGGCCCCUGUCAGAUUCUGGUGAAUCUGCGAAUUCUGCUGU [A10U G14A] — lower, 0.622
- GGGGGCCACUGCACAAGCGUUCACGUCGCGGCCCCUGUCAGAUUCUGGUGAAUCUGCGAAUUCUGCUGU [A10U G14C] — lower, 0.482
- GGGGGCCACUGCAGAAGCGUUCACGUCGCGGCCCCUGUCAGAUUCUUGUGAAUCUGCGAAUUCUGCUGU [A10U G47U] — higher, 0.962
- GGGGGCCACUGCAGAAGCGUUCACGUCGCGGCCCCUGUCAGAUUCUCGUGAAUCUGCGAAUUCUGCUGU [A10U G47C] — higher, 0.991
- GGGGGCCACUGCAGAAGCGUUCACGUCGCGGCCCCUGUCAGAUUCUAGUGAAUCUGCGAAUUCUGCUGU [A10U G47A] — higher, 1.03
- GGGGGCCACUGCAGAAGCGUUCACGUCGCGGCCCCUGUCAGAUUCUGGUGAAUCUCCGAAUUCUGCUGU [A10U G56C] — lower, 0.84
- GGGGGCCACUGCAGAAGCGUUCACGUCGCGGCCCCUGUCAGAUUCUGGAGAAUCUGCGAAUUCUGCUGU [A10U U49A] — higher, 0.989
- GGGGGCCACUGCAGAAGCGUUCACGUCGCGGCCCCUGUCAGAUUCUGGCGAAUCUGCGAAUUCUGCUGU [A10U U49C] — higher, 1
- GGGGGCCACUGCAGAAGCGUUCACGUCGCGGCCCCUGUCAGAUUCUGGGGAAUCUGCGAAUUCUGCUGU [A10U U49G] — higher, 1.01
- GGGGGCCACUGCAGAAGCGUUCACGUCGCGGCCCCUGUCAGAUUCUGGUGAAUCUGCGAAUUGUGCUGU [A10U C63G] — lower, 0.591
- GGGGGCCACUGCAGAAGCGUUCACGUCGCGGCCCCUGUCAGAUUCUGGUGAAUCUGCGAAUUAUGCUGU [A10U C63A] — lower, 0.825
- GGGGGCCACUGCAGAAGCGUUCACGUCGCGGCCCCUGUCAGAUUCUGGUGAAGCUGCGAAUUCUGCUGU [A10U U53G] — lower, 0.902
- GGGGGCCACUGCAGAAGCGUUCACGUCGCGGCCCCUGUCAGAUUCUGGUGAAACUGCGAAUUCUGCUGU [A10U U53A] — higher, 0.981
- GGGGGCCACUGCAGAAGCGUUCACGUCGCGGCCCCUAUCAGAUUCUGGUGAAUCUGCGAAUUCUGCUGU [A10U G37A] — lower, 0.322
- GGGGGCCACUGCAGAAGCGUUCACGUCGCGGCCCCUUUCAGAUUCUGGUGAAUCUGCGAAUUCUGCUGU [A10U G37U] — lower, 0.203
- GGGGGCCACUGCAGAAGCGUUCACGUCGCAGCCCCUGUCAGAUUCUGGUGAAUCUGCGAAUUCUGCUGU [A10U G30A] — lower, 0.922
- GGGGGCCACUGCAGAAGCGUUCACGUCGCCGCCCCUGUCAGAUUCUGGUGAAUCUGCGAAUUCUGCUGU [A10U G30C] — higher, 0.992

Reference: the RNAGym collection of RNA variant scans (doi:10.7554/elife.80360)
